# Where “and” joins values, the source holds several entries; their conditions need not be identical. Identical values can stand only once.
# T1: TV0924 (TREVI0001_0924; rTV0924; TvAckA) (Treponema vincentii, UniProt C8PR54)
# T1 construct: gene ackA; homodimer, calculated dimer mass 104,820 g/mol
# T1 sequence (C8PR54 1-449): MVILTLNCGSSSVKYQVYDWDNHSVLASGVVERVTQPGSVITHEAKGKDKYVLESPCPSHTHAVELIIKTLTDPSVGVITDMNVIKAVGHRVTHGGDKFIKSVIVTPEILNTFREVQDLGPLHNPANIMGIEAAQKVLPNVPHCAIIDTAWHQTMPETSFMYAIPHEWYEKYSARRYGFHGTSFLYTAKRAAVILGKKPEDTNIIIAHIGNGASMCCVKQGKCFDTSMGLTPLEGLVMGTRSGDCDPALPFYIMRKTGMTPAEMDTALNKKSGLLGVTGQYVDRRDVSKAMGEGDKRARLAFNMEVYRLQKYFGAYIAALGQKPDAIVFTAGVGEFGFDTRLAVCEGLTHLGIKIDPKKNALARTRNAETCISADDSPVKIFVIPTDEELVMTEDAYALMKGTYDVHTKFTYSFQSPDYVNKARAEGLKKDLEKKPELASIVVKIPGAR
# B1: TV0924 (TREVI0001_0924; rTV0924; TvAckA) (Treponema vincentii ATCC 35580) (protein)
# chain: T1 sequence (C8PR54 1-449)
# notes: homodimer, calculated dimer mass 104,820 g/mol
# B2: TP0476, acetate kinase from Treponema pallidum (enzyme, UniProt O83489 1-448, looked up)
# chain: MIILTLNCGSSSVKYQVYNWTERAVIAVGVVERVTQAGSVITHEVHGRENHVRESPCPTHTEAVQLIISTLTDAHVGVISDMSLIKAVGHRVLHAADRFVKSVVVTPDVLETFRSVQDLGPLHNPANIRGIEAAQAVIPSVPHCAIMDTAWHQTMPEASFMYAVPRQWYEEYAVRRYGFHGTSFLYTAKRASVILKKRAEDTNIIIAHIGNGASMCCVKNGVSFDTSMGITPLEGLIMGTRCGDCDPALAFYIMRKTGMSVSDIDTTLNKQSGLLGITGKYVDRRDVCAAMKNGDALARLAFDMEVHRIRKYFGAYVAALGKQPDALVFTAGVGEMCCDVRAAACAGLEHLGIRLDARKNELARTRNAETEISTDDSPVRILVIPTDEELVMTEDTYALMQGTYDVHTRFTYSFQDPTYVNKARAAGLKRDLEKNPALATIVVPRLDT
# notes: Acetate kinase TP0476 of Treponema pallidum, amino acid residues 1-448; The dominant species is a dimer; monomer, trimer, tetramer and aggregates were also seen; also called rTP0476; TpAckA
# How the values were obtained:
# [1] = molecular target: TV0924 (TREVI0001_0924), acetate kinase from Treponema vincentii (Treponema vincentii); test: mass photometry; TwoMP (Refeyn), sample diluted in PBS, ca. 10 nM in the droplet, 60-s movie; self-association
# [2] = molecular target: TV0924 (TREVI0001_0924), acetate kinase from Treponema vincentii (Treponema vincentii); test: AUC; sedimentation velocity, 20°C, Buffer A (20 mM HEPES, 0.1 M NaCl, pH 7.5, 2 mM n-octyl-β-D-glucopyranoside), 50,000 rpm, absorbance at 280 nm, c(s) analysis in SEDFIT; self-association
# [3] = molecular target: T1, TV0924 (TREVI0001_0924; rTV0924; TvAckA); test: X-ray crystal structure, […] Å; type: binding; conditions: active site; co-crystallised with 5 mM ADP and 5 mM MgCl2, pH 5.5; modelled as AMP, may be hydrolysed ADP or ADP with disordered beta-phosphate
# purified protein [4] = substrate: CC(=O)OP(=O)(O)O; test: purified protein; type: biochemical, Treponema vincentii; conditions: ATP-forming direction, ADP up to 5 mM, 20 mM MgCl2, 100 mM HEPES pH 7.5, 100 mM NaCl, 37 °C
# purified protein [5] = substrate: Nc1ncnc2c1ncn2[C@@H]1O[C@H](COP(=O)(O)OP(=O)(O)O)[C@@H](O)[C@H]1O; test: purified protein; type: biochemical, Treponema vincentii; conditions: ATP-forming direction, acetyl phosphate up to 10 mM, 20 mM MgCl2, 100 mM HEPES pH 7.5, 100 mM NaCl, 37 °C
# purified protein [6] = substrate: CC(=O)OP(=O)(O)O; test: purified protein; type: biochemical, Treponema pallidum; conditions: ATP-forming direction, ADP up to 5 mM, 20 mM MgCl2, 100 mM HEPES pH 7.5, 100 mM NaCl, 37 °C
# purified protein [7] = substrate: Nc1ncnc2c1ncn2[C@@H]1O[C@H](COP(=O)(O)OP(=O)(O)O)[C@@H](O)[C@H]1O; test: purified protein; type: biochemical, Treponema pallidum; conditions: ATP-forming direction, acetyl phosphate up to 10 mM, 20 mM MgCl2, 100 mM HEPES pH 7.5, 100 mM NaCl, 37 °C
# [8] = molecular target: the molecule itself; test: mass photometry; TwoMP (Refeyn), sample diluted in PBS, ca. 10 nM in the droplet, 60-s movie; self-association
# [9] = molecular target: the molecule itself; test: AUC; sedimentation velocity, 20°C, Buffer A (20 mM HEPES, 0.1 M NaCl, pH 7.5, 2 mM n-octyl-β-D-glucopyranoside), 50,000 rpm, absorbance at 280 nm, c(s) analysis in SEDFIT; self-association
molecule,measurement,setting,value
"TV0924 (TREVI0001_0924), acetate kinase from Treponema vincentii (enzyme)",stoichiometry N,[1],2
same,stoichiometry N,[2],2
Nc1ncnc2c1ncn2[C@@H]1O[C@H](COP(=O)(O)O)[C@@H](O)[C@H]1O [AMP],"X-ray crystal structure, 1.30 Å",[3],"The nucleotide was modeled as AMP, and we refer to this structure below as TV0924‧AMP."
B1,Km,purified protein [4],320 ± 30 µM
same,kcat,purified protein [4],3900 ± 300 s⁻¹
same,kcat/Km,purified protein [4],1.19e+07 ± 400000 M⁻¹ s⁻¹
same,Km,purified protein [5],650 ± 30 µM
same,kcat,purified protein [5],4800 ± 400 s⁻¹
same,kcat/Km,purified protein [5],7.5e+06 ± 400000 M⁻¹ s⁻¹
B2,Km,purified protein [6],380 ± 19 µM
same,kcat,purified protein [6],51.5 ± 0.8 s⁻¹
same,kcat/Km,purified protein [6],137000 ± 11000 M⁻¹ s⁻¹
same,Km,purified protein [7],650 ± 70 µM
same,kcat,purified protein [7],63.3 ± 1.5 s⁻¹
same,kcat/Km,purified protein [7],90000 ± 10000 M⁻¹ s⁻¹
same,stoichiometry N,[8],3 and 4
same,stoichiometry N,[9],2
